Publication PMC3776355

Target: Ero1-α(WT), recombinant (human) (UniProt Q96HE7)
Assay: SPR

UniProt Q96HE7, sequence (Q96HE7 24-468): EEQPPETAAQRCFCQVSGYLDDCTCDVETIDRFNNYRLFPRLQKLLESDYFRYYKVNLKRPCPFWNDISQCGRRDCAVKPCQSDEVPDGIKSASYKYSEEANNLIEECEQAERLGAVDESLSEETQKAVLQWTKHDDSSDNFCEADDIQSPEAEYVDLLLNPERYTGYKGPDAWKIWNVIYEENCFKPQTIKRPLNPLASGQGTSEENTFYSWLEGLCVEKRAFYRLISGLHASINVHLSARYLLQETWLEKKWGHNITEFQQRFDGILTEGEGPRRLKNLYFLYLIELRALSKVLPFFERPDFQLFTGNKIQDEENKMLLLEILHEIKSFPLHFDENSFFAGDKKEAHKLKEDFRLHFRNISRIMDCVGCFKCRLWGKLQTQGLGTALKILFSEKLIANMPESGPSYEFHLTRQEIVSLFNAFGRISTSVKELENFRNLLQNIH

In the case of “PDI, recombinant (wild type) (from UniProt P07237 18-508) (enzyme)”, the Kd is reported as 1700 nM.
